# Columns and labels:
# [1] = molecular target: recombinant human FcRn protein (neonatal Fc receptor) (human) (UniProt P55899)
# [2] = molecular target: recombinant human FcRn protein (neonatal Fc receptor) (human) (UniProt P55899); remark: listed apart in the source
reduction of basal-to-apical transcytosis of CR3022-LS across WD-HAE cultures with excess IVIG as competitor [1],decrease of basal-to-apical transcytosis of CR3022 (400 µg) across WD-HAE cultures with 10-fold excess IVIG (4 mg) as competitor [2],Substance
20%,,CR3022-LS (CR3022 with Fc containing the LS mutation) (antibody)
,50%,"CR3022 (human recombinant monoclonal antibody, wildtype IgG1-Fc)"

# Reference: publication PMC11439726
